Test results as given in patent publication US20260167699A1 (Chugai, published 2026).

Key:
Assay in all cases: SPR, relative to GpH7-A5/GpH7-B3/GpL16-k0 =100
FcγRIIa(R) = molecular target: T1, FcγRIIa(R) (human, UniProt P12318 34-217)
T1 construct: extracellular domain; also called 2aR
T1 sequence: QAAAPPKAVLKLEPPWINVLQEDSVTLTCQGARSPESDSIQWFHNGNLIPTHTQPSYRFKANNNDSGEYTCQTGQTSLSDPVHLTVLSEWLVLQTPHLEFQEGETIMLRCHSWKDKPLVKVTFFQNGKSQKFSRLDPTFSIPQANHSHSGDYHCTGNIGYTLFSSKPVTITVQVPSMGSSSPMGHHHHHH

FcγRIIb = molecular target: T2, FcγRIIb (human, UniProt P31994 43-217)
T2 construct: extracellular domain; also called 2b
T2 sequence: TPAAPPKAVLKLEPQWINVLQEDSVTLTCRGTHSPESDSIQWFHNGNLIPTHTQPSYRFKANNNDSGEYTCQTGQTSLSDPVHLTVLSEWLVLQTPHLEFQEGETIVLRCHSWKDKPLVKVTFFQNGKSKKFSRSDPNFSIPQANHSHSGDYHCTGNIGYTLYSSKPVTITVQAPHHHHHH

FcγRIIa(H) = molecular target: T3, FcγRIIa(H) (human, UniProt P12318 34-217)
T3 construct: extracellular domain; also called 2aH
T3 sequence: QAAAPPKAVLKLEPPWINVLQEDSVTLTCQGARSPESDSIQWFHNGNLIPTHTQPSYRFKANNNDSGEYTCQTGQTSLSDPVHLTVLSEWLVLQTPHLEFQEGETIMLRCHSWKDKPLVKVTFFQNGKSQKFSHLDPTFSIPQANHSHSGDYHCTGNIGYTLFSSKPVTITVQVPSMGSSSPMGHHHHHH

FcγRIa = molecular target: T4, FcγRIa (human, UniProt P12314 16-292)
T4 construct: extracellular domain; also called 1a
T4 sequence (P12314 other isoform, or with tags, fused parts or gaps): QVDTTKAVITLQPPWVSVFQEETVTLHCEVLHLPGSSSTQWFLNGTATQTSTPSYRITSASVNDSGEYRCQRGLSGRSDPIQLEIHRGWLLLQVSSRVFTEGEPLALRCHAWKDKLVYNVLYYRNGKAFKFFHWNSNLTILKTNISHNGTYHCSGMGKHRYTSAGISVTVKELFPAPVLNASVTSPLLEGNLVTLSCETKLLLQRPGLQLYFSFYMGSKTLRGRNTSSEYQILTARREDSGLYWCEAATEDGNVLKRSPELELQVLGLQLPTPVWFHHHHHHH

Binder | He/Con 2aR (FcγRIIa(R)) | He/Con 2b (FcγRIIb) | He/Con 2aH (FcγRIIa(H)) | He/Con 1a (FcγRIa)
GpH7-A5/GpH7-B3 variant S324_02A/GpL16-k0 (antibody, human IgG1, kappa, He Ab: heterodimerized IgG1, one H chain mutated) heavy 1: not shown heavy 2: not shown light: DIVMTQSPLSLPVTPGEPASISCQASESLVHSNRNTYLHWYLQKPGQSPQLLIYKVSNRFSGVPDRFSGSGSGTDFTLKISRVEAEDVGVYYCSQNTHVPPTFGQGTKVEIERTVAAPSVFIFPPSDEQLKSGTASVVCLLNNFYPREAKVQWKVDNALQSGNSQESVTEQDSKDSTYSLSSTLTLSKADYEKHKVYACEVTHQGLSSPVTKSFNRGEC | 99.9% | 102% | 114% | 96.9%
GpH7-A5/GpH7-B3 variant S324_15Y/GpL16-k0 (antibody, human IgG1, kappa, He Ab: heterodimerized IgG1, one H chain mutated) heavy 1: not shown heavy 2: not shown light: DIVMTQSPLSLPVTPGEPASISCQASESLVHSNRNTYLHWYLQKPGQSPQLLIYKVSNRFSGVPDRFSGSGSGTDFTLKISRVEAEDVGVYYCSQNTHVPPTFGQGTKVEIERTVAAPSVFIFPPSDEQLKSGTASVVCLLNNFYPREAKVQWKVDNALQSGNSQESVTEQDSKDSTYSLSSTLTLSKADYEKHKVYACEVTHQGLSSPVTKSFNRGEC | 107% | 115% | 114% | 107%
GpH7-A5/GpH7-B3 variant Y296_02A/GpL16-k0 (antibody, human IgG1, kappa, He Ab: heterodimerized IgG1, one H chain mutated) heavy 1: not shown heavy 2: not shown light: DIVMTQSPLSLPVTPGEPASISCQASESLVHSNRNTYLHWYLQKPGQSPQLLIYKVSNRFSGVPDRFSGSGSGTDFTLKISRVEAEDVGVYYCSQNTHVPPTFGQGTKVEIERTVAAPSVFIFPPSDEQLKSGTASVVCLLNNFYPREAKVQWKVDNALQSGNSQESVTEQDSKDSTYSLSSTLTLSKADYEKHKVYACEVTHQGLSSPVTKSFNRGEC | 93% | 83.1% | 89.1% | 99.8%
GpH7-A5/GpH7-B3 variant Y296_01G/GpL16-k0 (antibody, human IgG1, kappa, He Ab: heterodimerized IgG1, one H chain mutated) heavy 1: not shown heavy 2: not shown light: DIVMTQSPLSLPVTPGEPASISCQASESLVHSNRNTYLHWYLQKPGQSPQLLIYKVSNRFSGVPDRFSGSGSGTDFTLKISRVEAEDVGVYYCSQNTHVPPTFGQGTKVEIERTVAAPSVFIFPPSDEQLKSGTASVVCLLNNFYPREAKVQWKVDNALQSGNSQESVTEQDSKDSTYSLSSTLTLSKADYEKHKVYACEVTHQGLSSPVTKSFNRGEC | 91.6% | 80.4% | 91.6% | 99.4%
GpH7-A5/GpH7-B3 variant S324_06M/GpL16-k0 (antibody, human IgG1, kappa, He Ab: heterodimerized IgG1, one H chain mutated) heavy 1: not shown heavy 2: not shown light: DIVMTQSPLSLPVTPGEPASISCQASESLVHSNRNTYLHWYLQKPGQSPQLLIYKVSNRFSGVPDRFSGSGSGTDFTLKISRVEAEDVGVYYCSQNTHVPPTFGQGTKVEIERTVAAPSVFIFPPSDEQLKSGTASVVCLLNNFYPREAKVQWKVDNALQSGNSQESVTEQDSKDSTYSLSSTLTLSKADYEKHKVYACEVTHQGLSSPVTKSFNRGEC | 118% | 126% | 122% | 104%
GpH7-A5/GpH7-B3 variant S324_19Q/GpL16-k0 (antibody, human IgG1, kappa, He Ab: heterodimerized IgG1, one H chain mutated) heavy 1: not shown heavy 2: not shown light: DIVMTQSPLSLPVTPGEPASISCQASESLVHSNRNTYLHWYLQKPGQSPQLLIYKVSNRFSGVPDRFSGSGSGTDFTLKISRVEAEDVGVYYCSQNTHVPPTFGQGTKVEIERTVAAPSVFIFPPSDEQLKSGTASVVCLLNNFYPREAKVQWKVDNALQSGNSQESVTEQDSKDSTYSLSSTLTLSKADYEKHKVYACEVTHQGLSSPVTKSFNRGEC | 86.8% | 87.2% | 106% | 106%
GpH7-A5/GpH7-B3 variant S324_03V/GpL16-k0 (antibody, human IgG1, kappa, He Ab: heterodimerized IgG1, one H chain mutated) heavy 1: not shown heavy 2: not shown light: DIVMTQSPLSLPVTPGEPASISCQASESLVHSNRNTYLHWYLQKPGQSPQLLIYKVSNRFSGVPDRFSGSGSGTDFTLKISRVEAEDVGVYYCSQNTHVPPTFGQGTKVEIERTVAAPSVFIFPPSDEQLKSGTASVVCLLNNFYPREAKVQWKVDNALQSGNSQESVTEQDSKDSTYSLSSTLTLSKADYEKHKVYACEVTHQGLSSPVTKSFNRGEC | 113% | 128% | 108% | 97.7%
GpH7-A5/GpH7-B3 variant S324_12R/GpL16-k0 (antibody, human IgG1, kappa, He Ab: heterodimerized IgG1, one H chain mutated) heavy 1: not shown heavy 2: not shown light: DIVMTQSPLSLPVTPGEPASISCQASESLVHSNRNTYLHWYLQKPGQSPQLLIYKVSNRFSGVPDRFSGSGSGTDFTLKISRVEAEDVGVYYCSQNTHVPPTFGQGTKVEIERTVAAPSVFIFPPSDEQLKSGTASVVCLLNNFYPREAKVQWKVDNALQSGNSQESVTEQDSKDSTYSLSSTLTLSKADYEKHKVYACEVTHQGLSSPVTKSFNRGEC | 84% | 82.4% | 107% | 95.9%
GpH7-A5/GpH7-B3 variant S324_16H/GpL16-k0 (antibody, human IgG1, kappa, He Ab: heterodimerized IgG1, one H chain mutated) heavy 1: not shown heavy 2: not shown light: DIVMTQSPLSLPVTPGEPASISCQASESLVHSNRNTYLHWYLQKPGQSPQLLIYKVSNRFSGVPDRFSGSGSGTDFTLKISRVEAEDVGVYYCSQNTHVPPTFGQGTKVEIERTVAAPSVFIFPPSDEQLKSGTASVVCLLNNFYPREAKVQWKVDNALQSGNSQESVTEQDSKDSTYSLSSTLTLSKADYEKHKVYACEVTHQGLSSPVTKSFNRGEC | 105% | 109% | 113% | 106%
GpH7-A5/GpH7-B3 variant S324_04F/GpL16-k0 (antibody, human IgG1, kappa, He Ab: heterodimerized IgG1, one H chain mutated) heavy 1: not shown heavy 2: not shown light: DIVMTQSPLSLPVTPGEPASISCQASESLVHSNRNTYLHWYLQKPGQSPQLLIYKVSNRFSGVPDRFSGSGSGTDFTLKISRVEAEDVGVYYCSQNTHVPPTFGQGTKVEIERTVAAPSVFIFPPSDEQLKSGTASVVCLLNNFYPREAKVQWKVDNALQSGNSQESVTEQDSKDSTYSLSSTLTLSKADYEKHKVYACEVTHQGLSSPVTKSFNRGEC | 99.6% | 99.9% | 106% | 103%
GpH7-A5/GpH7-B3 variant S324_11K/GpL16-k0 (antibody, human IgG1, kappa, He Ab: heterodimerized IgG1, one H chain mutated) heavy 1: not shown heavy 2: not shown light: DIVMTQSPLSLPVTPGEPASISCQASESLVHSNRNTYLHWYLQKPGQSPQLLIYKVSNRFSGVPDRFSGSGSGTDFTLKISRVEAEDVGVYYCSQNTHVPPTFGQGTKVEIERTVAAPSVFIFPPSDEQLKSGTASVVCLLNNFYPREAKVQWKVDNALQSGNSQESVTEQDSKDSTYSLSSTLTLSKADYEKHKVYACEVTHQGLSSPVTKSFNRGEC | 91% | 89.6% | 102% | 96.3%
GpH7-A5/GpH7-B3 variant S324_09D/GpL16-k0 (antibody, human IgG1, kappa, He Ab: heterodimerized IgG1, one H chain mutated) heavy 1: not shown heavy 2: not shown light: DIVMTQSPLSLPVTPGEPASISCQASESLVHSNRNTYLHWYLQKPGQSPQLLIYKVSNRFSGVPDRFSGSGSGTDFTLKISRVEAEDVGVYYCSQNTHVPPTFGQGTKVEIERTVAAPSVFIFPPSDEQLKSGTASVVCLLNNFYPREAKVQWKVDNALQSGNSQESVTEQDSKDSTYSLSSTLTLSKADYEKHKVYACEVTHQGLSSPVTKSFNRGEC | 102% | 112% | 117% | 97.7%
GpH7-A5/GpH7-B3 variant S324_07I/GpL16-k0 (antibody, human IgG1, kappa, He Ab: heterodimerized IgG1, one H chain mutated) heavy 1: not shown heavy 2: not shown light: DIVMTQSPLSLPVTPGEPASISCQASESLVHSNRNTYLHWYLQKPGQSPQLLIYKVSNRFSGVPDRFSGSGSGTDFTLKISRVEAEDVGVYYCSQNTHVPPTFGQGTKVEIERTVAAPSVFIFPPSDEQLKSGTASVVCLLNNFYPREAKVQWKVDNALQSGNSQESVTEQDSKDSTYSLSSTLTLSKADYEKHKVYACEVTHQGLSSPVTKSFNRGEC | 109% | 125% | 107% | 96.2%
GpH7-A5/GpH7-B3 variant S324_08L/GpL16-k0 (antibody, human IgG1, kappa, He Ab: heterodimerized IgG1, one H chain mutated) heavy 1: not shown heavy 2: not shown light: DIVMTQSPLSLPVTPGEPASISCQASESLVHSNRNTYLHWYLQKPGQSPQLLIYKVSNRFSGVPDRFSGSGSGTDFTLKISRVEAEDVGVYYCSQNTHVPPTFGQGTKVEIERTVAAPSVFIFPPSDEQLKSGTASVVCLLNNFYPREAKVQWKVDNALQSGNSQESVTEQDSKDSTYSLSSTLTLSKADYEKHKVYACEVTHQGLSSPVTKSFNRGEC | 110% | 117% | 106% | 97.3%
GpH7-A5/GpH7-B3 variant S324_10E/GpL16-k0 (antibody, human IgG1, kappa, He Ab: heterodimerized IgG1, one H chain mutated) heavy 1: not shown heavy 2: not shown light: DIVMTQSPLSLPVTPGEPASISCQASESLVHSNRNTYLHWYLQKPGQSPQLLIYKVSNRFSGVPDRFSGSGSGTDFTLKISRVEAEDVGVYYCSQNTHVPPTFGQGTKVEIERTVAAPSVFIFPPSDEQLKSGTASVVCLLNNFYPREAKVQWKVDNALQSGNSQESVTEQDSKDSTYSLSSTLTLSKADYEKHKVYACEVTHQGLSSPVTKSFNRGEC | 99% | 101% | 114% | 98.9%
GpH7-A5/GpH7-B3 variant S324_18N/GpL16-k0 (antibody, human IgG1, kappa, He Ab: heterodimerized IgG1, one H chain mutated) heavy 1: not shown heavy 2: not shown light: DIVMTQSPLSLPVTPGEPASISCQASESLVHSNRNTYLHWYLQKPGQSPQLLIYKVSNRFSGVPDRFSGSGSGTDFTLKISRVEAEDVGVYYCSQNTHVPPTFGQGTKVEIERTVAAPSVFIFPPSDEQLKSGTASVVCLLNNFYPREAKVQWKVDNALQSGNSQESVTEQDSKDSTYSLSSTLTLSKADYEKHKVYACEVTHQGLSSPVTKSFNRGEC | 101% | 106% | 109% | 109%
